Laboratory results from patent US20060257397A1 (CRUCELL HOLLAND B V, published 2006).

Assays:
CD80 = molecular target: T1, CD80 (UniProt P33681 35-288, limits assumed); test: flow cytometry, phage antibody on transfected A431 cells
T1 construct: whole, on cells; also called A431 cell line transfected with CD80
T1 sequence (looked up): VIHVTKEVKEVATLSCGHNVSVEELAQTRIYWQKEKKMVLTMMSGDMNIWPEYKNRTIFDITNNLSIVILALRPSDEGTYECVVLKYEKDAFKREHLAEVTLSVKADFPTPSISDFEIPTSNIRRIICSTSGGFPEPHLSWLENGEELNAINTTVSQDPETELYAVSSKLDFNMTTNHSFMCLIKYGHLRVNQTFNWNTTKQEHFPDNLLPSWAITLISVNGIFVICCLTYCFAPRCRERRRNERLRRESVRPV
Experimental: (§1) In total, three selection rounds were performed and after both the second and third round, phage antibodies were tested for specific binding on a variety of cell-types, i.e., cultured DCs, PBLs, tonsil and synovial fluid cell suspensions, several cell lines including K562, U266, IM9, U937, THP, CEM, Fravel, HL60, Raji, RPMI8226, HepgII, HELA, HT29 and Jurkatt, a C1R cell line transfected with the molecule CD1a, and A431 cell lines transfected with the molecules CD80, CD83, and CD86. For staining of cells, 100 μl of the phage antibodies were blocked by adding 50 μl of PBS containing 4% milk powder for 15 minutes at room temperature. Next, 5×10⁵ cells in 50 μl of PBS containing 1% BSA were added to the blocked phage antibodies and the mixture obtained was incubated on ice for one hour. After that, the obtained mixture was washed three times with 200 μl PBS containing 1% BSA. To detect cell-bound phage antibodies, the cells were incubated with 20 μl of a 1:800 dilution of sheep anti-M13 polyclonal antibody for 20 minutes on ice. Thereafter, the cells were washed with PBS containing 1% BSA and incubated with 20 μl of a 1:700 dilution of PE-conjugated donkey anti-sheep polyclonal antibody for 20 minutes on ice.
(§2) To visualize DCs the cells were washed again with PBS containing 1% BSA, stained with 10 μl 1:10 diluted FITC-conjugated anti-CD1a antibody (BD PharMingen) and suspended in 200 μl of PBS containing 1% BSA. Flow cytometric analyses were performed using a FACScan (Becton Dickinson).
(§3) The twenty scFv phage antibodies derived from the selections described above bound exclusively to the cell line transfected with CD1a (see lower right panel of FIG. 2 for binding of the representative scFv phage antibody called SC02-113 to the CD1a-transfected cell line). […]

CD83 = molecular target: T2, CD83 (UniProt Q01151 20-205, limits assumed); test: as above
T2 construct: whole, on cells; also called A431 cell line transfected with CD83
T2 sequence (looked up): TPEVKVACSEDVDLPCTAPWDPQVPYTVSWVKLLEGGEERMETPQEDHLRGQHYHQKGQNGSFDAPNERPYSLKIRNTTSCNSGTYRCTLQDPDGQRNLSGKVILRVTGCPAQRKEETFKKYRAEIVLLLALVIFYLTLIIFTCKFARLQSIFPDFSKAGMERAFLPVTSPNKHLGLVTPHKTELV
Experimental: as §1, §2, §3

CD86 = molecular target: T3, CD86 (UniProt P42081 24-329, limits assumed); test: as above
T3 construct: whole, on cells; also called A431 cell line transfected with CD86
T3 sequence (looked up): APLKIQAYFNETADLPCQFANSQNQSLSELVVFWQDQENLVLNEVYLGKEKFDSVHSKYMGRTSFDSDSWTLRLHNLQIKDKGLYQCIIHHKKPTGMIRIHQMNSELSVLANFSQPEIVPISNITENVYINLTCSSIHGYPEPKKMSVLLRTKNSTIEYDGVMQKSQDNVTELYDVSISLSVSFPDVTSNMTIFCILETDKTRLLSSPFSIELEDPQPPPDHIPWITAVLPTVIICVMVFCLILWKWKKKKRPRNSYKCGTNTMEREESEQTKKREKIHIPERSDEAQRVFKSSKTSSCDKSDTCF
Experimental: as §1, §2, §3

human CD1a = molecular target: T4, human CD1a (human, UniProt P06126 17-327); test: flow cytometry, phage antibody on C1R cells transfected with CD1a
T4 construct: whole, on cells; also called C1R-CD1a; CR1-CD1a
Experimental: In total, three selection rounds were performed and after both the second and third round, phage antibodies were tested for specific binding on a variety of cell-types, i.e., cultured DCs, PBLs, tonsil and synovial fluid cell suspensions, several cell lines including K562, U266, IM9, U937, THP, CEM, Fravel, HL60, Raji, RPMI8226, HepgII, HELA, HT29 and Jurkatt, a C1R cell line transfected with the molecule CD1a, and A431 cell lines transfected with the molecules CD80, CD83, and CD86. For staining of cells, 100 μl of the phage antibodies were blocked by adding 50 μl of PBS containing 4% milk powder for 15 minutes at room temperature. Next, 5×10⁵ cells in 50 μl of PBS containing 1% BSA were added to the blocked phage antibodies and the mixture obtained was incubated on ice for one hour. After that, the obtained mixture was washed three times with 200 μl PBS containing 1% BSA. To detect cell-bound phage antibodies, the cells were incubated with 20 μl of a 1:800 dilution of sheep anti-M13 polyclonal antibody for 20 minutes on ice. Thereafter, the cells were washed with PBS containing 1% BSA and incubated with 20 μl of a 1:700 dilution of PE-conjugated donkey anti-sheep polyclonal antibody for 20 minutes on ice. […]

T4 sequence (P06126 17-327): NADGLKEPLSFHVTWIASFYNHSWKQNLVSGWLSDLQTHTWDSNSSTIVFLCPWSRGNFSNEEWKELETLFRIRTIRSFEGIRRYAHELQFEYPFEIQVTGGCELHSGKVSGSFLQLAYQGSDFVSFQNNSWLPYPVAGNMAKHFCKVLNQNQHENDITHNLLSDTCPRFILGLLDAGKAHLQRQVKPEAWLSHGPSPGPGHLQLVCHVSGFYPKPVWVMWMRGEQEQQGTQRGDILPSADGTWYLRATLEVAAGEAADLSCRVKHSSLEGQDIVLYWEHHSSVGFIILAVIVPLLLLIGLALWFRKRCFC

B1: scFv phage antibody SC02-115 (scFv)
scFv: QVQLVQSGAEAKKPGASVKVSCKASGYTFTGYYMHWVRQAPGQGLEWMGWISAYNGNTNYAQKLQGRVTMTTDTSTSTAYMELRSLRSDDTAVYYCARSQMPSYFDYWGQGTLVTVSRGGGGSGGGGSGGGGSSELTQDPAVSVALGQTVRITCQGDSLRSYYASWYQQKPGQAPVLVIYGKNNRPSGIPDRFSGSSSGNTASLTITGAQAEDEADYYCNSRDSSGNHVVFGGGTKLTVLG
binding result (CD80): no binding | binding result (CD83): no binding | binding result (CD86): no binding | binding result (human CD1a): binds
